# Source: US6673902B2, “Cyclin D binding factor, and uses thereof” (St. Jude Children's Research Hospital, priority 1996, dated 2004)
# B1: GST-DMP1: GST fused to residues 176-761 of DMP1, bacterially synthesized (protein)
# chain: GIKDATEIIFEMSKDERKDFYRTIAWGLNRPLFAVYRRVLRMYDDRNHVGKYTPEEIEKLKELRIKHGNDWATIGAALGRSASSVKDRCRLMKDTCNTGKWTEEEEKRLAEVVHELTSTEPGDIVTQGVSWAAVAERVGTRSEKQCRSKWLNYLNWKQSGGTEWTKEDEINLILRIAELDVADENDINWDLLAEGWSSVRSPQWLRSKWWTIKRQIANHKDVSFPVLIKGLKQLHENQKNNPVLLENKSGSGVPNSNCNSSVQHVQIRVARLEDNTAISPSPMAALQIPVQITHVSSTDSPAASADSETITLNSGTLQTFEILPSFPLQPTGTPGTYLLQTSSSQGLPLTLTTNPTLTLAAAAPASPEQIIVHALSPEHLLNTSDNVTVQCHTPRVIIQTVATEDITSSLSQEELTVDSDLHSSDFPEPPDALEADTFPDEIPRPKMTIQPSFNNAHVSKFSDQNSTELMNSVMVRTEEEIADTDLKQEEPPSDLASAYVTEDLESPTIVHQVHQTIDDETILIVPSPHGFIQASDVIDTESVLPLTTLTDPIFQHHQEASNIIGSSLGSPVSEDSKDVEDLVNCH
# modifications: left off: a dimerising Fc or GST
# notes: GST fused to residues 176-761 of DMP1, bacterially synthesized
# B2: Ets1: Ets family transcription factor (protein, UniProt P27577 1-440, looked up)
# Protein C-ets-1: MKAAVDLKPTLTIIKTEKVDLELFPSPDMECADVPLLTPSSKEMMSQALKATFSGFTKEQQRLGIPKDPRQWTETHVRDWVMWAVNEFSLKGVDFQKFCMSGAALCALGKECFLELAPDFVGDILWEHLEILQKEDVKPYQVNGANPTYPESCYTSDYFISYGIEHAQCVPPSEFSEPSFITESYQTLHPISSEELLSLKYENDYPSVILQDPLQTDTLQTDYFAIKQEVLTPDNMCLGRASRGKLGGQDSFESVESYDSCDRLTQSWSSQSSFNSLQRVPSYDSFDYEDYPAALPNHKPKGTFKDYVRDRADLNKDKPVIPAAALAGYTGSGPIQLWQFLLELLTDKSCQSFISWTGDGWEFKLSDPDEVARRWGKRKNKPKMNYEKLSRGLRYYYDKNIIHKTAGKRYVYRFVCDLQSLLGYTPEELHAMLDVKPDAD
# B3: Myc: known rapid inducer of p19ARF protein expression used as positive control (protein, UniProt P01108 1-454, looked up)
# Myc proto-oncogene protein: MDFLWALETPQTATTMPLNVNFTNRNYDLDYDSVQPYFICDEEENFYHQQQQSELQPPAPSEDIWKKFELLPTPPLSPSRRSGLCSPSYVAVATSFSPREDDDGGGGNFSTADQLEMMTELLGGDMVNQSFICDPDDETFIKNIIIQDCMWSGFSAAAKLVSEKLASYQAARKDSTSLSPARGHSVCSTSSLYLQDLTAAASECIDPSVVFPYPLNDSSSPKSCTSSDSTAFSPSSDSLLSSESSPRASPEPLVLHEETPPTTSSDSEEEQEDEEEIDVVSVEKRQTPAKRSESGSSPSRGHSKPPHSPLVLKRCHVSTHQHNYAAPPSTRKDYPAAKRAKLDSGRVLKQISNNRKCSSPRSSDTEENDKRRTHNVLERQRRNELKRSFFALRDQIPELENNEKAPKVVILKKATAYILSIQADEHKLTSEKDLLRKRREQLKHKLEQLRNSGA
# Legend:
# [1] = target: T1, D-type cyclins (Mus musculus, UniProt P25322); assay: In vitro binding of [35S]methionine-labeled D-type cyclins to GST fusion proteins; settings: cyclin D1
# T1 construct: made in house; host or cells: in vitro transcription (Stratagene) and translation (rabbit reticulocyte system, Promega)
# T1 sequence (P25322 whole entry, the tested form may be a part): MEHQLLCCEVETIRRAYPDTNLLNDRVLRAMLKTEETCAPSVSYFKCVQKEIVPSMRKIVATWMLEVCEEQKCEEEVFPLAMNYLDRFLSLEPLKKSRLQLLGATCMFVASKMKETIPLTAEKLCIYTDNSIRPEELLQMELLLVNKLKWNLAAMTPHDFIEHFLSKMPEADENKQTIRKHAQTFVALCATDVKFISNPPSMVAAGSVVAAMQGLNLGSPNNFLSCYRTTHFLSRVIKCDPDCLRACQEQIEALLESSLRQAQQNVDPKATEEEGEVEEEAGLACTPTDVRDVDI
# Description: A BglII fragment encoding amino acids 176-761 of DMP1 (FIG. 1) is subcloned into the BamHI site of the pGEX-3X plasmid (Pharmacia, Uppsala Sweden), and overnight cultures of transformed bacteria are diluted 10-fold with fresh medium, cultured for 2-4 more hours at 37° C., and induced with 1 mM isopropyl-β-D-thiogalactopyranoside (IPTG) for 1 hour. Induced bacteria are lysed by sonication in phosphate-buffered saline (PBS) containing 1% Triton X-100, and recombinant glutathione-S-transferase (GST)-DMP1 protein is purified by absorption and elution from glutathione-Sepharose beads as described (35). […] After 2 hours at 4° C., the beads are collected by centrifugation, washed 4 times with IP Kinase buffer, and the bound proteins are denatured and analyzed by electrophoresis on 11% polyacrylamide gels containing sodium dodecyl sulfate (SDS) (1).
# Because DMP1 interacted with cyclin D2 in yeast, the ability of a glutathione S-transferase (GST)-DMP1 fusion protein to bind D-type cyclins in vitro is examined. […] Bound cyclins recovered on washed glutathione-Sepharose beads are analyzed by electrophoresis on denaturing gels. […] GST-DMP1 is less efficient than GST-RB in binding cyclins D2 and D3 (˜4-fold less binding), and under these conditions, an interaction with D1 is not detected (lanes 3, 7, 11). […]
# [2] = tested on: 281 bp ARF promoter fragment; assay: Transactivation of ARF promoter-luciferase reporter in NIH-3T3 cells; format: cell-based, mouse; settings: NIH-3T3, 281 bp ARF promoter fragment-luciferase
# Description: Transactivation assays. NIH-3T3 cells were transfected with 4 μg of pGL2-ARFpro BamHI or its DMP1 binding site mutant, with or without increasing amount of pFLEX-DMP1, pEVRFO-Ets1, pCMV-Ets2, pRcRSV-Elfl, pdEB-Fli1, p(IEB-EWS-Fli1 or pCMV-E2F-1 (89-437), and 4 μg β-actin SEAP control vectors [Inoue and Sherr, Mol. Cell. Biol. 18: 1590-1600 (1998); Inoue et al., J. Biol. Chem. 273:29188-29194 (1998); Davis and Roussel, Gene 171:265-269 (1996); Baily et al., Mol. Cell. Biol. 14:3230-3241 (1994)]. Transfections and normalization of luciferase levels with internal control SEAP levels were performed as described [Inoue and Sherr, Mol. Cell. Biol. 18:1590-1600 (1998)].
# Similarly, DMP1 deletion mutants defective in transactivation [Inoue and Sherr, Mol. Cell. […] Mutation of the DMP1 binding site within the ARF promoter [changing CCCGGATGC, (SEQ ID NO:33) to CCCGTCGAC, (SEQ ID NO:42)] also completely abolished transactivation by wild-type DMP1 (FIG. 14C, mutant reporter). Therefore, sequences within the −189 to −181 ARF promoter segment were the only ones responsible for DMP1-mediated transactivation. Although Ets1 could bind to a 23 base pair oligonucleotide containing the DMP1 consensus site (FIG. 14B), several Ets proteins were unable to induce significant reporter gene expression from the more complex 281 base pair ARF promoter (FIG. 14C). […]
# [3] = tested on: ARF-null MEFs; assay: BrdU incorporation / cell cycle arrest in ARF-null MEFs; format: cell-based, mouse; settings: retroviral infection
# Description: (§1) BrdU incorporation and immunofluorescence. Wild-type or ARF-null MEFs (4×10^4 cells) were seeded on gelatin-coated coverslips 16 hours before virus infection. Cells were infected three times with empty vector, or vectors expressing murine DMP1, human c-Myc, human E2F-1, or human Ets1. Cells were labeled 36 hours after virus infection with bromodeoxyuridine (BrdU, Sigma) for 14 hours in complete medium. For pulse labeling, MEFs were treated with 2 μM4-HT for 36 hours and labeled with BrdU for three hours at different intervals throughout the inductive phase. Cells were fixed in ice-cold methanol-acetone (1:1) for 10 min at −20° C. and then were stained with affinity-purified antibodies to DMP1 (AF) [Hirai and Sherr, Mol. Cell. […]
# (§2) Based on the above observations, it was determined as to whether introduction of DMP1 would induce synthesis of the endogenous ARF protein in normal diploid fibroblast strains. […] Although the blot was normalized for protein input, the levels of p19^ARF induced by DMP1 were calculated to be 2-fold higher than those induced by Myc, because fewer cells were productively infected with the DMP1 virus in this experiment (see FIG. 15A).
# [4] = tested on: wild-type MEFs; assay: BrdU incorporation / cell cycle arrest in wild-type MEFs; format: cell-based, mouse; settings: retroviral infection
# Description: as §1, §2
# [5] = tested on: wild-type MEFs; assay: Apoptosis assay in wild-type MEFs deprived of serum; format: cell-based, mouse
# Description: Apoptosis assays. Wild-type MEFs infected with the indicated retroviruses for 36 hours were starved for serum for 24 hours. Viability was determined by trypan blue dye exclusion, and DNA fragmentation was monitored by a terminal deoxynuclectidyl transferase (FACS-TUNEL) assay and by measurement of subdiploid DNA content of propidium iodide-stained nuclei [Zindy et al., Genes Dev. 12:2424-2433 (1998)].
# On the other hand, MEFs overexpressing c-Myc, E2F-1, or E1A are exquisitely sensitive to apoptosis. […] 12:2424-2433 (1998); De Stanchina et al., Genes Dev. 12:2434-2442 (1998)].
# [6] = tested on: p19ARF; assay: Induction of endogenous p19ARF protein in retrovirus-infected MEFs; format: cell-based, mouse; settings: early passage MEFs, retroviral infection
# Description: Virus production and infection. Human kidney 293T cells were transfected with a helper ecotropic retrovirus plasmid defective in psi-2 packaging sequences, together with pSRα vectors containing murine DMP1, human c-Myc, human E2F-1, or human Ets1 cDNAs [Zindy, et al., Genes Dev. 12:2424-2433 (1998); Inoue and Sherr, J. Biol. Chem. 273:29188-29194 (1998)]. Viruses were harvested every 6 hours 24-72 hours after transfection, filtered and stored at 4° C. until used for infection [Zindy, et al., Genes Dev. 12:2424-2433 (1998)]. In order to construct a retroviral vector containing DMP1 linked to a mutated tamoxifen-responsive element of the estrogen receptor (DMP1-ER™), a 3′ 0.3 kb EcoNI DNA fragment of murine DMP1 cDNA was amplified by PCR using
# RNA and protein expression. Quantitative RT-PCRs employed specific primers for murine ARF exon 1β (30 cycles) and for β-actin (20 cycles) used as a control [Zindy et al., Oncogene 15:203-211 (1997)]. […]
# as §2
molecule,measurement,setting,value
B1,interaction with D1,[1],not detected
B2,ARF promoter reporter gene expression,[2],slightly inhibitory
same,cell cycle arrest,[3],behaved indistinguishably from those infected with the control vector
same,cell cycle arrest,[4],behaved indistinguishably from those infected with the control vector
B3,apoptosis / cell death,[5],induced cell death
same,ARF protein synthesis,[6],induced ARF protein synthesis
